The values below are quoted from earlier work in paper PMC9917595.

This data set addresses Endothelin-1 (Homo sapiens) (UniProt P05305). The following applies: cited from earlier work.
UniProt P05305, sequence (P05305 53-73): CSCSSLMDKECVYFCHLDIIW

As a reminder, the Kd is the concentration at which binding is half-saturated. As for “Endothelin B receptor (from UniProt P24530)”, the dissociation constant Kd was 0.0286 nM.
